Test results: patent publication US20210139548A1 (published 2021)
*1 amine or outer side, *2 acyl side, *3 side chain or, on linkers, in order; H or OH if unused. Side-chain parts run from the residue outwards. The star is where a group is joined. C18 diacid = O=C(O)CCCCCCCCCCCCCCCCC(=O)*; γGlu = O=C(O)[C@H](CCC(=O)[*:2])N[*:1]; Isovaleryl = CC(C)CC(=O)*; AEEA = NCCOCCOCC(=O)O

T1: human neuropeptide Y2 receptor (human, UniProt P49146 1-381)
T1 construct: whole, on cells; also called hNPY2 receptor; hNPY2-R
T1 sequence (looked up): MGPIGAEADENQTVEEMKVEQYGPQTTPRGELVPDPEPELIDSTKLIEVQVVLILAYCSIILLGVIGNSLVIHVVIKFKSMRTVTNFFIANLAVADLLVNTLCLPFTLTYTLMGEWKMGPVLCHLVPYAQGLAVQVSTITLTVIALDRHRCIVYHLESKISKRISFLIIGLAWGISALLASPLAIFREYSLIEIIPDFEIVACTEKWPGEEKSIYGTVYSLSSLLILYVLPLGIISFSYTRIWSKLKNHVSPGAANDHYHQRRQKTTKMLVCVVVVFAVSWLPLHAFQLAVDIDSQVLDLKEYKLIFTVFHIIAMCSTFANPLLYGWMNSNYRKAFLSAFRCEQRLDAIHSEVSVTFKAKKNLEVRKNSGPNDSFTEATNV


Molecular target: T1, human neuropeptide Y2 receptor
Test: radioligand competition (125I-PYY(1-36)), hNPY2R membranes
Outline: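 Commercial human Y2 receptor membranes (0.5 μg protein/well) were incubated with peptide for 2 h at room temperature in 50 mM HEPES, 5 mM MgCl₂, 1 mM CaCl₂, pH 7.4, with 0.2% ovalbumin. Bound radioligand was separated on PEI-soaked GF/C filters and counted by scintillation, and IC₅₀ came from nonlinear sigmoidal regression.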

Row | Binder | Ki
1 | Isovaleryl-APEK([AEEA-AEEA-γGlu-C18 diacid])PEEEASPEALQRYYVSLRHYYNWLTRQRY-NH2 (SMILES CC(C)CC(=O)N[C@@H](C)C(=O)N1CCC[C@H]1C(=O)N[C@@H](CCC(=O)O)C(=O)N[C@@H](CCCCNC(=O)COCCOCCNC(=O)COCCOCCNC(=O)CC[C@H](NC(=O)CCCCCCCCCCCCCCCCC(=O)O)C(=O)O)C(=O)N1CCC[C@H]1C(=O)N[C@@H](CCC(=O)O)C(=O)N[C@@H](CCC(=O)O)C(=O)N[C@@H](CCC(=O)O)C(=O)N[C@@H](C)C(=O)N[C@@H](CO)C(=O)N1CCC[C@H]1C(=O)N[C@@H](CCC(=O)O)C(=O)N[C@@H](C)C(=O)N[C@@H](CC(C)C)C(=O)N[C@@H](CCC(N)=O)C(=O)N[C@@H](CCCNC(=N)N)C(=O)N[C@@H](Cc1ccc(O)cc1)C(=O)N[C@@H](Cc1ccc(O)cc1)C(=O)N[C@H](C(=O)N[C@@H](CO)C(=O)N[C@@H](CC(C)C)C(=O)N[C@@H](CCCNC(=N)N)C(=O)N[C@@H](Cc1c[nH]cn1)C(=O)N[C@@H](Cc1ccc(O)cc1)C(=O)N[C@@H](Cc1ccc(O)cc1)C(=O)N[C@@H](CC(N)=O)C(=O)N[C@@H](Cc1c[nH]c2ccccc12)C(=O)N[C@@H](CC(C)C)C(=O)N[C@H](C(=O)N[C@@H](CCCNC(=N)N)C(=O)N[C@@H](CCC(N)=O)C(=O)N[C@@H](CCCNC(=N)N)C(=O)N[C@@H](Cc1ccc(O)cc1)C(N)=O)[C@@H](C)O)C(C)C) [Compound 115] | 1.94 nM
2 | Isovaleryl-APEK([AEEA-AEEA-γGlu-C18 diacid])PEEEASPEELQRYYVTLRHYYNWLTRQRY-NH2 (SMILES CC(C)CC(=O)N[C@@H](C)C(=O)N1CCC[C@H]1C(=O)N[C@@H](CCC(=O)O)C(=O)N[C@@H](CCCCNC(=O)COCCOCCNC(=O)COCCOCCNC(=O)CC[C@H](NC(=O)CCCCCCCCCCCCCCCCC(=O)O)C(=O)O)C(=O)N1CCC[C@H]1C(=O)N[C@@H](CCC(=O)O)C(=O)N[C@@H](CCC(=O)O)C(=O)N[C@@H](CCC(=O)O)C(=O)N[C@@H](C)C(=O)N[C@@H](CO)C(=O)N1CCC[C@H]1C(=O)N[C@@H](CCC(=O)O)C(=O)N[C@@H](CCC(=O)O)C(=O)N[C@@H](CC(C)C)C(=O)N[C@@H](CCC(N)=O)C(=O)N[C@@H](CCCNC(=N)N)C(=O)N[C@@H](Cc1ccc(O)cc1)C(=O)N[C@@H](Cc1ccc(O)cc1)C(=O)N[C@H](C(=O)N[C@H](C(=O)N[C@@H](CC(C)C)C(=O)N[C@@H](CCCNC(=N)N)C(=O)N[C@@H](Cc1c[nH]cn1)C(=O)N[C@@H](Cc1ccc(O)cc1)C(=O)N[C@@H](Cc1ccc(O)cc1)C(=O)N[C@@H](CC(N)=O)C(=O)N[C@@H](Cc1c[nH]c2ccccc12)C(=O)N[C@@H](CC(C)C)C(=O)N[C@H](C(=O)N[C@@H](CCCNC(=N)N)C(=O)N[C@@H](CCC(N)=O)C(=O)N[C@@H](CCCNC(=N)N)C(=O)N[C@@H](Cc1ccc(O)cc1)C(N)=O)[C@@H](C)O)[C@@H](C)O)C(C)C) [Compound 119] | 3.32 nM
3 | Isovaleryl-APEK([AEEA-AEEA-γGlu-C18 diacid])PEEDAAPEELQRYYVSLRHYYNWLTRQRY-NH2 (SMILES CC(C)CC(=O)N[C@@H](C)C(=O)N1CCC[C@H]1C(=O)N[C@@H](CCC(=O)O)C(=O)N[C@@H](CCCCNC(=O)COCCOCCNC(=O)COCCOCCNC(=O)CC[C@H](NC(=O)CCCCCCCCCCCCCCCCC(=O)O)C(=O)O)C(=O)N1CCC[C@H]1C(=O)N[C@@H](CCC(=O)O)C(=O)N[C@@H](CCC(=O)O)C(=O)N[C@@H](CC(=O)O)C(=O)N[C@@H](C)C(=O)N[C@@H](C)C(=O)N1CCC[C@H]1C(=O)N[C@@H](CCC(=O)O)C(=O)N[C@@H](CCC(=O)O)C(=O)N[C@@H](CC(C)C)C(=O)N[C@@H](CCC(N)=O)C(=O)N[C@@H](CCCNC(=N)N)C(=O)N[C@@H](Cc1ccc(O)cc1)C(=O)N[C@@H](Cc1ccc(O)cc1)C(=O)N[C@H](C(=O)N[C@@H](CO)C(=O)N[C@@H](CC(C)C)C(=O)N[C@@H](CCCNC(=N)N)C(=O)N[C@@H](Cc1c[nH]cn1)C(=O)N[C@@H](Cc1ccc(O)cc1)C(=O)N[C@@H](Cc1ccc(O)cc1)C(=O)N[C@@H](CC(N)=O)C(=O)N[C@@H](Cc1c[nH]c2ccccc12)C(=O)N[C@@H](CC(C)C)C(=O)N[C@H](C(=O)N[C@@H](CCCNC(=N)N)C(=O)N[C@@H](CCC(N)=O)C(=O)N[C@@H](CCCNC(=N)N)C(=O)N[C@@H](Cc1ccc(O)cc1)C(N)=O)[C@@H](C)O)C(C)C) [Compound 122] | 1.84 nM
4 | Isovaleryl-APEK([AEEA-AEEA-γGlu-C18 diacid])PEEDAEPEELQRYYVELRHYYNWLTRQRY-NH2 (SMILES CC(C)CC(=O)N[C@@H](C)C(=O)N1CCC[C@H]1C(=O)N[C@@H](CCC(=O)O)C(=O)N[C@@H](CCCCNC(=O)COCCOCCNC(=O)COCCOCCNC(=O)CC[C@H](NC(=O)CCCCCCCCCCCCCCCCC(=O)O)C(=O)O)C(=O)N1CCC[C@H]1C(=O)N[C@@H](CCC(=O)O)C(=O)N[C@@H](CCC(=O)O)C(=O)N[C@@H](CC(=O)O)C(=O)N[C@@H](C)C(=O)N[C@@H](CCC(=O)O)C(=O)N1CCC[C@H]1C(=O)N[C@@H](CCC(=O)O)C(=O)N[C@@H](CCC(=O)O)C(=O)N[C@@H](CC(C)C)C(=O)N[C@@H](CCC(N)=O)C(=O)N[C@@H](CCCNC(=N)N)C(=O)N[C@@H](Cc1ccc(O)cc1)C(=O)N[C@@H](Cc1ccc(O)cc1)C(=O)N[C@H](C(=O)N[C@@H](CCC(=O)O)C(=O)N[C@@H](CC(C)C)C(=O)N[C@@H](CCCNC(=N)N)C(=O)N[C@@H](Cc1c[nH]cn1)C(=O)N[C@@H](Cc1ccc(O)cc1)C(=O)N[C@@H](Cc1ccc(O)cc1)C(=O)N[C@@H](CC(N)=O)C(=O)N[C@@H](Cc1c[nH]c2ccccc12)C(=O)N[C@@H](CC(C)C)C(=O)N[C@H](C(=O)N[C@@H](CCCNC(=N)N)C(=O)N[C@@H](CCC(N)=O)C(=O)N[C@@H](CCCNC(=N)N)C(=O)N[C@@H](Cc1ccc(O)cc1)C(N)=O)[C@@H](C)O)C(C)C) [Compound 111] | 5.43 nM

These reach a lower Ki. Values come first.

Row | Ki | Binder
5 | 0.77 nM | Isovaleryl-APEK([AEEA-AEEA-γGlu-C18 diacid])PEEDAEPEEIQRYYVSLRHYYNWLTRQRY-NH2 (SMILES CC[C@H](C)[C@H](NC(=O)[C@H](CCC(=O)O)NC(=O)[C@H](CCC(=O)O)NC(=O)[C@@H]1CCCN1C(=O)[C@H](CCC(=O)O)NC(=O)[C@H](C)NC(=O)[C@H](CC(=O)O)NC(=O)[C@H](CCC(=O)O)NC(=O)[C@H](CCC(=O)O)NC(=O)[C@@H]1CCCN1C(=O)[C@H](CCCCNC(=O)COCCOCCNC(=O)COCCOCCNC(=O)CC[C@H](NC(=O)CCCCCCCCCCCCCCCCC(=O)O)C(=O)O)NC(=O)[C@H](CCC(=O)O)NC(=O)[C@@H]1CCCN1C(=O)[C@H](C)NC(=O)CC(C)C)C(=O)N[C@@H](CCC(N)=O)C(=O)N[C@@H](CCCNC(=N)N)C(=O)N[C@@H](Cc1ccc(O)cc1)C(=O)N[C@@H](Cc1ccc(O)cc1)C(=O)N[C@H](C(=O)N[C@@H](CO)C(=O)N[C@@H](CC(C)C)C(=O)N[C@@H](CCCNC(=N)N)C(=O)N[C@@H](Cc1c[nH]cn1)C(=O)N[C@@H](Cc1ccc(O)cc1)C(=O)N[C@@H](Cc1ccc(O)cc1)C(=O)N[C@@H](CC(N)=O)C(=O)N[C@@H](Cc1c[nH]c2ccccc12)C(=O)N[C@@H](CC(C)C)C(=O)N[C@H](C(=O)N[C@@H](CCCNC(=N)N)C(=O)N[C@@H](CCC(N)=O)C(=O)N[C@@H](CCCNC(=N)N)C(=O)N[C@@H](Cc1ccc(O)cc1)C(N)=O)[C@@H](C)O)C(C)C) [Compound 110]
6 | 0.61 nM | Isovaleryl-APAK([AEEA-AEEA-γGlu-C18 diacid])PEADASPEELQRYYVSLRHYYNWLTRQRY-NH2 (SMILES CC(C)CC(=O)N[C@@H](C)C(=O)N1CCC[C@H]1C(=O)N[C@@H](C)C(=O)N[C@@H](CCCCNC(=O)COCCOCCNC(=O)COCCOCCNC(=O)CC[C@H](NC(=O)CCCCCCCCCCCCCCCCC(=O)O)C(=O)O)C(=O)N1CCC[C@H]1C(=O)N[C@@H](CCC(=O)O)C(=O)N[C@@H](C)C(=O)N[C@@H](CC(=O)O)C(=O)N[C@@H](C)C(=O)N[C@@H](CO)C(=O)N1CCC[C@H]1C(=O)N[C@@H](CCC(=O)O)C(=O)N[C@@H](CCC(=O)O)C(=O)N[C@@H](CC(C)C)C(=O)N[C@@H](CCC(N)=O)C(=O)N[C@@H](CCCNC(=N)N)C(=O)N[C@@H](Cc1ccc(O)cc1)C(=O)N[C@@H](Cc1ccc(O)cc1)C(=O)N[C@H](C(=O)N[C@@H](CO)C(=O)N[C@@H](CC(C)C)C(=O)N[C@@H](CCCNC(=N)N)C(=O)N[C@@H](Cc1c[nH]cn1)C(=O)N[C@@H](Cc1ccc(O)cc1)C(=O)N[C@@H](Cc1ccc(O)cc1)C(=O)N[C@@H](CC(N)=O)C(=O)N[C@@H](Cc1c[nH]c2ccccc12)C(=O)N[C@@H](CC(C)C)C(=O)N[C@H](C(=O)N[C@@H](CCCNC(=N)N)C(=O)N[C@@H](CCC(N)=O)C(=O)N[C@@H](CCCNC(=N)N)C(=O)N[C@@H](Cc1ccc(O)cc1)C(N)=O)[C@@H](C)O)C(C)C) [Compound 121]
